One series addresses TALE13 N+137 C+95 (Xanthomonas axonopodis). Description: DNA-binding ELISA; replicates. Particulars: tags: N-terminal Met. The text has this: (§1) When clones #3, 4 and 5 were subjected to the SELEX procedure, no consensus sequences were detected. Thus it appears that the TALE binding domains require N- and C-terminal cap sequences comprised in from clone #2 to yield a consensus sequence in this assay. Additional truncations were made and tested for activity using a DNA binding ELISA assay essentially as described in Bartsevich et al., Stem Cells. 2003; 21:632-7. The truncations are presented below in Table 7, which also includes the ELISA results. The starting N-terminus in these truncations is at amino acid 152, identical to the N-terminus in the #1, #2, and #3 truncations discussed above. In this fine-scale truncation series, the end points are as follows.

The target in another series is TALE13 N+91 C+115 (Xanthomonas axonopodis). In words: DNA-binding ELISA; background level.
From the text: as §1
(In general: An ELISA detects its analyte on a solid surface through an enzyme-linked reagent.)

A further series concerns the target TALE13 N+111 C+52 (Xanthomonas axonopodis). Description: DNA-binding ELISA; background level.
From the text: as §1

For the next series, the target named is TALE13 N+91 C+52 (Xanthomonas axonopodis). Description: DNA-binding ELISA; background level.
From the text: as §1

In a further series the target is TALE13 N+121 C+52 (Xanthomonas axonopodis). Description: DNA-binding ELISA; background level.
From the text: as §1

The target in another series is TALE13 N+100 C+115 (Xanthomonas axonopodis). Description: DNA-binding ELISA; background level.
From the text: as §1

For a further series, the target named is TALE13 N+100 C+52 (Xanthomonas axonopodis). Description: DNA-binding ELISA; background level.
From the text: as §1

A further series has as its target T1, TALE13 +28 FokI (Xanthomonas axonopodis (engineered)).
T1 chain: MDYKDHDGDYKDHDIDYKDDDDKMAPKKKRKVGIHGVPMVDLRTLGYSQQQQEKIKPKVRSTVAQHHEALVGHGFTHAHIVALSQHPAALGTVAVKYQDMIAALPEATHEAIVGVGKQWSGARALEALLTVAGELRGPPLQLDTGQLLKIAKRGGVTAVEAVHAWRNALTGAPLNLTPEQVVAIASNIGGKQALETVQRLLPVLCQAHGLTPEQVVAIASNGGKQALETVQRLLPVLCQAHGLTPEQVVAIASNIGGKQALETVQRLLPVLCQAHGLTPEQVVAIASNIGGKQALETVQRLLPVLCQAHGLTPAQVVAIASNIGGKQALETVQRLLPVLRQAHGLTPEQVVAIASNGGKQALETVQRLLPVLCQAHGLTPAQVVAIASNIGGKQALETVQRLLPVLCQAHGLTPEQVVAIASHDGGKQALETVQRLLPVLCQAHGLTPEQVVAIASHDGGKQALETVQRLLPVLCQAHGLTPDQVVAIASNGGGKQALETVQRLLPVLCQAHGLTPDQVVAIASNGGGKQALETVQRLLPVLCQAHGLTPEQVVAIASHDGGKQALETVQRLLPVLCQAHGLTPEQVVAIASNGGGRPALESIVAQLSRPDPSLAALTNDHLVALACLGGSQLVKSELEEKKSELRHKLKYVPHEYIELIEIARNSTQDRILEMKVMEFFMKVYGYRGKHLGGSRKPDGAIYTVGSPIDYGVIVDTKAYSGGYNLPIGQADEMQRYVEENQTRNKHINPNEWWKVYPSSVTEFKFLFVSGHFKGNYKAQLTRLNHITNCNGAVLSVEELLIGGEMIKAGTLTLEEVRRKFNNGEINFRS
Description: cleavage_in_vitro; two inverted sites, 16 bp gap; NEB Buffer 2, 37 C. Particulars: tags: FLAG, NLS, chain copies: 2. The protocol:
TALE domain fusions were also constructed using Fold cleavage half domains. For these examples, wild type FokI half cleavage domains were used so that for nuclease activity, a homodimer must be formed from two of the fusions. For these fusions, the TALE13 DNA binding domain was fused to each FokI half domain by cloning the TALE DNA binding domain into a plasmid adjacent to FokI-specifying sequence. In addition, various linkers were tested for use between the DNA binding domain and the nuclease domain. Linkers L2 and L8 were used which are as follows: L2=GS (SEQ ID NO:71) and L8=[…] (SEQ ID NO:72). The target sites were cloned into a TOPO2.1 target vector (Invitrogen) with varying gap spacings between each target binding site such that the two were separated from each other by 2 to 22 bp. PCR amplification of an approximately 1 kb region of the target vector was done to generate the target DNAs. The TALE DNA binding domains were also truncated as described previously, and are described using the same nomenclature as described above in Examples 2 and 6. The TALE domain nuclease fusion clones were expressed in the TNT Rabbit Reticulocyte Lysate system by adding 5 μL of water containing 250 nanograms of the nuclease fusion clone plasmid to 20 μL of lysate and incubating at 30° C. for 90 minutes.
The lysate was then used to cleave the target DNAs as follows: 2.5 μL of lysate were added to a 50 μL reaction containing 50 nanograms of PCR-amplified target DNA and a final Buffer 2 (New England Biolabs) concentration of 1×. The cleavage reaction was for one hour at 37° C., followed by a 20 minute heat inactivation stage at 65° C. The reaction was then centrifuged at high speed to separate the target DNA from the lysate, causing the lysate to condense into a pellet in the reaction well. The DNA-containing supernatant was pipetted off and run on an ethidium bromide-stained agarose gel (Invitrogen) to separate intact target DNA from cleaved target DNA. The agarose gel was then analyzed using AlphaEaseFC (Alpha Innotech) software to measure the amount of target DNA present in the large uncleaved DNA band and the two smaller DNA bands resulting from a single cleavage event of the target DNA. The percentage of cleaved DNA out of the total amount of target DNA loaded into the gel represents the percent cleavage in each reaction.

Here are results for one molecule from patent publication US20110301073, “Novel DNA-binding proteins and uses thereof” (Sangamo BioSciences, Inc., published 2011).

B1: TALE13 target (dsDNA)
DNA 1: TATAAATACCTTCT
DNA 2: AGAAGGTATTTATA
Turning to B1, the binding result in the series with TALE13 N+137 C+95 is recorded as “binds”; with TALE13 N+91 C+115 it was “no binding”; with TALE13 N+111 C+52, “no binding”; in the series with TALE13 N+91 C+52 it was “no binding”; with TALE13 N+121 C+52, “no binding”; with TALE13 N+100 C+115, “no binding”. In addition, the binding result with TALE13 N+100 C+52 is on record as “no binding”. For the same molecule, the activity in the series with TALE13 +28 FokI is 100 % cleavage.
